Assays:
human FcγR3A 158V [1] = molecular target: T1, human FcγR3A 158V (human, UniProt P08637 17-208); experiment: SPR 37C, steady state;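 note: fc variants captured on chip-bound human BTLA ectodomain, recombinant FcγR ectodomains injected as analyte at varied concentrations, double-referenced equilibrium binding fitted to Langmuir model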
T1 construct: extracellular domain
Experimental: (§1) For the low affinity FcγRs (FcγR2A, FcγR2B, FcγR3A and FcγR3B) the interactions were assessed by surface plasmon resonance with the recombinantly expressed FcRs (extracellular domains only) as analyte. Briefly, recombinant human BTLA extracellular domain (BTLA^K31-R151) was covalently immobilised to both flow cells of all channels of a CMS Series S sensor chip using the GE Healthcare Amine coupling kit. The 2.8.6 Fc variant to be assessed was then captured (approx. 500-1000 response units) in flow cell 2 of each channel. Steady state affinity analysis was then performed by injecting varying concentrations of FcR in multiple cycles and measuring equilibrium binding. Double referencing was used (subtracting the signal in the reference Fc1 and also subtracting the signal from a blank zero concentration injection). KDs were calculated from the Langmuir curves (plotting equilibrium binding against analyte concentration to determine the concentration required for half maximal binding).

human FcγR3B [2] = molecular target: T2, human FcγR3B (human, UniProt O75015 17-200, limits assumed); experiment: SPR 37C, steady state;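 note: fc variants captured on chip-bound human BTLA ectodomain, recombinant FcγR ectodomains injected as analyte at varied concentrations, double-referenced equilibrium binding fitted to Langmuir model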
T2 construct: extracellular domain; also called CD16B
Experimental: as §1

human FcγR3A 158F [3] = molecular target: T3, human FcγR3A 158F (human, UniProt P08637 17-208); experiment: SPR 37C, steady state;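 note: fc variants captured on chip-bound human BTLA ectodomain, recombinant FcγR ectodomains injected as analyte at varied concentrations, double-referenced equilibrium binding fitted to Langmuir model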
T3 construct: extracellular domain
Experimental: as §1

human FcγR2B [4] = molecular target: T4, human FcγR2B (human, UniProt P31994 43-217); experiment: SPR 37C, steady state; hIgG1 D265A P238D Fc variant;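 for result: fc variants captured on chip-bound human BTLA ectodomain, recombinant FcγR ectodomains injected as analyte at varied concentrations, double-referenced equilibrium binding fitted to Langmuir model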
T4 construct: extracellular domain; also called hFcγR2B; CD32B
T4 sequence (looked up): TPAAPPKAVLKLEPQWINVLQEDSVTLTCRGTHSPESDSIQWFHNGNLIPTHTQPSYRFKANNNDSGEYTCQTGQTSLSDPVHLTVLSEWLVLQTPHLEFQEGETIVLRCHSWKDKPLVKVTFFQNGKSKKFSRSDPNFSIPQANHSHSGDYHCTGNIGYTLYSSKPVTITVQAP
Experimental: as §1

human FcγR2A 131H [5] = molecular target: T5, human FcγR2A 131H (human, UniProt P12318 34-217); experiment: as above
T5 construct: extracellular domain
T5 sequence (looked up): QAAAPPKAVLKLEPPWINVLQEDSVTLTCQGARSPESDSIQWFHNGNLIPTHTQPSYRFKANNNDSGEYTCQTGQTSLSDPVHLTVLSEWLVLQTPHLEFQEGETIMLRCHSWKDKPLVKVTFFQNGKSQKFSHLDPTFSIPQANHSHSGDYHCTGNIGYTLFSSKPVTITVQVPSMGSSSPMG
Experimental: as §1

human FcγR2A 131R [6] = molecular target: T6, human FcγR2A 131R (human, UniProt P12318 34-217); experiment: as above
T6 construct: extracellular domain
T6 sequence (looked up): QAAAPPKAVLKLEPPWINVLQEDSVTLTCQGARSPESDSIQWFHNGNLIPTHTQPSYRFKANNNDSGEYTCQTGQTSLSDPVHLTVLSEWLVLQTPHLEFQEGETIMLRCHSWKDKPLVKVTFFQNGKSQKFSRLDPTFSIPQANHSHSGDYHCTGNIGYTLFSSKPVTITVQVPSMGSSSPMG
Experimental: as §1

human FcγR2B [7] = molecular target: T4, human FcγR2B; experiment: SPR 37C, steady state; hIgG1 K322A Fc variant
Experimental: as §1

human FcγR3A 158V [8] = molecular target: T1, human FcγR3A 158V; experiment: SPR 37C, steady state; hIgG1 K322A Fc variant
Experimental: as §1

human FcγR2A 131H [9] = molecular target: T5, human FcγR2A 131H; experiment: SPR 37C, steady state; hIgG1 K322A Fc variant
Experimental: as §1

human FcγR3B [10] = molecular target: T2, human FcγR3B; experiment: SPR 37C, steady state; hIgG1 K322A Fc variant
Experimental: as §1

human FcγR3A 158F [11] = molecular target: T3, human FcγR3A 158F; experiment: SPR 37C, steady state; hIgG1 K322A Fc variant
Experimental: as §1

human FcγR1A [12] = molecular target: T7, human FcγR1A (human, UniProt P12314 16-288, biotinylated); experiment: SPR 37C, kinetic; hIgG1 K322A Fc variant
T7 construct: bought; also called CD64A
Experimental: For the high affinity FcR interactions (FcγR1A, and also FcRn assessed at pH6.0) the binding was assessed in a kinetic analysis with antibody as analyte. […] Reference flow cell 1 was left empty in all channels. Purified antibody was then injected at a single concentration and on/off rates calculated by curve fitting on BiaEvaluation software.

human FcγR1A [13] = molecular target: T7, human FcγR1A; experiment: SPR 37C, kinetic; hIgG1 N297A Fc variant
Experimental: (§2) For the high affinity FcR interactions (FcγR1A, and also FcRn assessed at pH6.0) the binding was assessed in a kinetic analysis with antibody as analyte. […] Reference flow cell 1 was left empty in all channels. Purified antibody was then injected at a single concentration and on/off rates calculated by curve fitting on BiaEvaluation software. […] IgG Fc has two binding sites for FcRn so this assessment performed with FcRn immobilised at high density provides an avidity estimate for the interaction rather than a true KD.

human FcRn = molecular target: T8, human FcRn (human, UniProt P55899 24-297; P61769 21-119, limits assumed, biotinylated); experiment: SPR, pH6.0
T8 construct: bought; also called FcRn pH6
Experimental: as §2

human FcγR2B [14] = molecular target: T4, human FcγR2B; experiment: SPR 37C, steady state; hIgG1 N297A Fc variant
Experimental: as §1

human FcγR2A 131H [15] = molecular target: T5, human FcγR2A 131H; experiment: SPR 37C, steady state; hIgG1 N297A Fc variant
Experimental: as §1

human FcγR2A 131R [16] = molecular target: T6, human FcγR2A 131R; experiment: SPR 37C, steady state; hIgG1 N297A Fc variant
Experimental: as §1

T1 sequence (P08637 17-208 F176V): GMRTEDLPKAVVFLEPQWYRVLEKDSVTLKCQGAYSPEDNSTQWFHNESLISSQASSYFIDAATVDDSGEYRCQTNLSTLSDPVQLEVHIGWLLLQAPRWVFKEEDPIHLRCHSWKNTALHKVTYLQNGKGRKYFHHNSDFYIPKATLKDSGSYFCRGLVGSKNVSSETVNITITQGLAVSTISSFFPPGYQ
T3 sequence (P08637 17-208): as the sequence (P08637 17-208 F176V) above, with V160F counted along it
T2 sequence (O75015 17-200 limits assumed): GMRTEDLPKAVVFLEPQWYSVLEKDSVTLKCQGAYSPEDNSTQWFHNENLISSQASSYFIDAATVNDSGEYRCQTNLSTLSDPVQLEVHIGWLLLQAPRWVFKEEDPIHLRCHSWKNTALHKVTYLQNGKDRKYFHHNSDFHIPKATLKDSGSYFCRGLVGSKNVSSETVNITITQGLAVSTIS
T7 sequence (P12314 16-288): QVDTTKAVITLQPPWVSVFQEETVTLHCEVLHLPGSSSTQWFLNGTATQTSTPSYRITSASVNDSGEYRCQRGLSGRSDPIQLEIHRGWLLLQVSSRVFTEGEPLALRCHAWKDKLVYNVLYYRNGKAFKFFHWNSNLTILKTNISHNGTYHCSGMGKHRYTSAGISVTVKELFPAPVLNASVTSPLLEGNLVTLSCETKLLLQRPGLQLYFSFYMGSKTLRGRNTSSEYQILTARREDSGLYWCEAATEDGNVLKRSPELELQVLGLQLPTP
T8 sequence (P55899 24-297 limits assumed, chain 1 of 2): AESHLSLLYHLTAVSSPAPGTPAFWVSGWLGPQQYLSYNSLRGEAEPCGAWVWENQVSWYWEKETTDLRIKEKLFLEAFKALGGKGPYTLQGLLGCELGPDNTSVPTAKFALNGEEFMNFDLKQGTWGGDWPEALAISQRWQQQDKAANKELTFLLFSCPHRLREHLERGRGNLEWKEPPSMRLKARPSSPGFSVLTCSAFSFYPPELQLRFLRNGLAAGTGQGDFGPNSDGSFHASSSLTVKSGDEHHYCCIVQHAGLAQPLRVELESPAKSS
T8 sequence (P61769 21-119 limits assumed, chain 2 of 2): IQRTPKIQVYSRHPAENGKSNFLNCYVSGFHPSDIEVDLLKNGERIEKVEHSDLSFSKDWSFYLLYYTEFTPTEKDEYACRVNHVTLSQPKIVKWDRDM

| Binder | binding result (human FcγR3A 158V [1]) | binding result (human FcγR3B [2]) | binding result (human FcγR3A 158F [3]) | Kd (human FcγR2B [4]) | Kd (human FcγR2A 131H [5]) | Kd (human FcγR2A 131R [6]) | Kd (human FcγR2B [7]) | Kd (human FcγR3A 158V [8]) | Kd (human FcγR2A 131H [9]) | Kd (human FcγR3B [10]) | Kd (human FcγR3A 158F [11]) | Kd (human FcγR1A [12]) | Kd (human FcγR1A [13]) | avidity (FcRn pH6) (human FcRn) | Kd (human FcγR2B [14]) | Kd (human FcγR2A 131H [15]) | Kd (human FcγR2A 131R [16]) |
| --- | --- | --- | --- | --- | --- | --- | --- | --- | --- | --- | --- | --- | --- | --- | --- | --- | --- |
| humanised 2.8.6 hIgG1 D265A P238D (antibody, Fc variant with the variable domains of humanised 2.8.6; copies: 2 + 2) heavy: not shown light: EIVLTQSPATLSLSPGERATLSCRASSSVSYMHWYQQKPGQAPRPLIYATSNRATGIPARFSGSGSGTDYTLTISSLEPEDFAVYYCHQWSSNPYTFGQGTKLEIKRTVAAPSVFIFPPSDEQLKSGTASVVCLLNNFYPREAKVQWKVDNALQSGNSQESVTEQDSKDSTYSLSSTLTLSKADYEKHKVYACEVTHQGLSSPVTKSFNRGEC | no binding | no binding | no binding | 684 µM | 4590 µM | 348 µM | – | – | – | – | – | – | – | – | – | – | – |
| humanised 2.8.6 hIgG1 K322A (antibody, Fc variant with the variable domains of humanised 2.8.6; copies: 2 + 2) heavy: not shown light: EIVLTQSPATLSLSPGERATLSCRASSSVSYMHWYQQKPGQAPRPLIYATSNRATGIPARFSGSGSGTDYTLTISSLEPEDFAVYYCHQWSSNPYTFGQGTKLEIKRTVAAPSVFIFPPSDEQLKSGTASVVCLLNNFYPREAKVQWKVDNALQSGNSQESVTEQDSKDSTYSLSSTLTLSKADYEKHKVYACEVTHQGLSSPVTKSFNRGEC | – | – | – | – | – | – | 11 µM | 2.18 µM | 4.6 µM | 11.9 µM | 5.75 µM | 0.0052 µM | – | – | – | – | – |
| humanised 2.8.6 hIgG1 N297A (antibody, Fc variant with the variable domains of humanised 2.8.6; copies: 2 + 2) heavy: not shown light: EIVLTQSPATLSLSPGERATLSCRASSSVSYMHWYQQKPGQAPRPLIYATSNRATGIPARFSGSGSGTDYTLTISSLEPEDFAVYYCHQWSSNPYTFGQGTKLEIKRTVAAPSVFIFPPSDEQLKSGTASVVCLLNNFYPREAKVQWKVDNALQSGNSQESVTEQDSKDSTYSLSSTLTLSKADYEKHKVYACEVTHQGLSSPVTKSFNRGEC | no binding | no binding | no binding | – | – | – | – | – | – | – | – | – | 8.7 µM | 9.41 nM | 1080 µM | 2150 µM | 447 µM |

Source: patent US20230235058A1 (OXFORD UNIVERSITY INNOVATION, published 2023)
